Measurements: patent US7250488 (Kyowa Kirin, dated 2007)

T1: mouse β-catenin (mouse, UniProt Q02248 2-781)
T1 construct: mature; also called ^35S-labeled β-catenin
T1 sequence (looked up): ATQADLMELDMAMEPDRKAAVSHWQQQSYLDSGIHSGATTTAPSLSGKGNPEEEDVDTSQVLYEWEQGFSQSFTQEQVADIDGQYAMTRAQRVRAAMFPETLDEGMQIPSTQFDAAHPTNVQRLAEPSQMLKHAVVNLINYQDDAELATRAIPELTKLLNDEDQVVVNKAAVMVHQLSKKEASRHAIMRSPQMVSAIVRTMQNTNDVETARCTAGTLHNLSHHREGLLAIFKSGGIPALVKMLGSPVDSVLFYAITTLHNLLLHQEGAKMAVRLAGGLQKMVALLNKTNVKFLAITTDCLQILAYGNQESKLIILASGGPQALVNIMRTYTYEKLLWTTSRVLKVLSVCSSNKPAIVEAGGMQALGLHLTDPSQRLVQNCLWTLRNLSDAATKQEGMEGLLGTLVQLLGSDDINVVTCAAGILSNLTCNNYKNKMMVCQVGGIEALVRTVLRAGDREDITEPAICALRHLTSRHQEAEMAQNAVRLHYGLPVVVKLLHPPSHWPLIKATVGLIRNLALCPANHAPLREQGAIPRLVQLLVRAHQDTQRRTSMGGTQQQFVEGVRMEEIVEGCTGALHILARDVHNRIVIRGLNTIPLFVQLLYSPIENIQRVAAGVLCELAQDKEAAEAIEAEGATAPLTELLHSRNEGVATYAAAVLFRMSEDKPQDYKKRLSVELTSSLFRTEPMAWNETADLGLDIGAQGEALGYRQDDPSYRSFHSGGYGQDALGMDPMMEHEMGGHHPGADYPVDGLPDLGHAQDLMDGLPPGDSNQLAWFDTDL

T2: N-terminal portion of mouse β-catenin (residues 1 to 140), ^35S-labeled (mouse, UniProt Q02248 1-140)
T2 construct: range 1-140; Translated in vitro with ^35S-methionine
T2 sequence (looked up): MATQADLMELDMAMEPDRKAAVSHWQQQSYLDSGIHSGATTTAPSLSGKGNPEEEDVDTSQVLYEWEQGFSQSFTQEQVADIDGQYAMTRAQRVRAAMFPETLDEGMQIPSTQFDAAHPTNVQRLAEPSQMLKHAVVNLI

T3: C-terminal portion of mouse β-catenin (residues 665 to 782), ^35S-labeled (mouse, UniProt Q02248 665-781)
T3 construct: range 665-782; Translated in vitro with ^35S-methionine
T3 sequence (looked up): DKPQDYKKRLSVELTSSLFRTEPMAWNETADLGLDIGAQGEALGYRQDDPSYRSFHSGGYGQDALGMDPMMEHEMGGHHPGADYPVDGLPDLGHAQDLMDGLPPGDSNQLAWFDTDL


Columns and labels:
[1] = target: T4, GAL4-β-catenin fusion protein (GAL4 BD fused with mβ-catenin arm, residues 141 to 664) (yeast; mouse, UniProt P04386 1-147; Q02248 141-664); assay: yeast two-hybrid, β-galactosidase activity
T4 construct: Two-hybrid bait expressed in yeast HF7C; also called bait for mβ-catenin arm
Excerpt: Specifically, both mouse fetal cDNA library for the two-hybrid system and plasmid GAL4-β-catenin prepared in (1) were introduced in yeast *Saccharomyces cerevisiae* HF7C strain (Clontech). HF7C strain is a yeast strain that is tryptophan-, leucine-, and histidine-auxotrophic, and, on the chromosome, has as a reporter gene a gene involved in histidine biosynthesis, HIS3, which has been ligated downstream of GAL1 promoter to which GAL4 BD can bind, as well as has of *E. coli*-derived β-galactosidase gene lazZ ligated downstream of a nucleotide sequence where GAL4 BD can bind (Gene, 212, 197 (1998)). A transformant containing both plasmid GAL4-β-catenin and cDNA clone for protein capable of binding to mβ-catenin arm and expresses the respective fusion proteins, is non-auxotrophic for histidine and is positive in β-galactosidase activity, because GAL4 BD is placed adjacent to GAL4 AD due the binding between mβ-catenin arm and the binding protein, the transcriptions of HIS3 gene and lacZ gene, downstream of the nucleotide sequence to which GAL4 BD binds, are activated. Four clones were finally selected, as colonies positive in β-galactosidase activity from 2.3 ×10^7 transformants which were grown on a medium without any of leucine, histidine, and tryptophan.
Each of these expression plasmids for fusion proteins of GAL4 AD and ICAT mutants was introduced together with the bait plasmid GAL4-β-catenin for mβ-catenin arm into yeast HF7C strain in the same manner as in Example 1, and then the binding of each ICAT mutant with β-catenin was evaluated based on the presence of β-galactosidase activity in the transformants.

mouse β-catenin [2] = target: T1, mouse β-catenin; assay: immunoprecipitation with anti-ICAT antibody from mouse brain lysate, Western blotting with anti-β-catenin antibody
Protocol: In the experiment for the detection of ICAT with immunoprecipitation and Western blotting using mouse brain lysate in Example 6, immunoprecipitation was carried out with the anti-ICAT antibody, and then Western blotting was performed with the anti-β-catenin monoclonal antibody (Transduction Laboratory; animal used for the immunization is mouse) as a primary antibody for the detection. […] However, when, in this experiment, the anti-ICAT antibody, which had previously been reacted to GST/ICAT, was used in the immunoprecipitation, the band of β-catenin was not detected because of inhibition of immunoprecipitation.

[3] = target: T2, N-terminal portion of mouse β-catenin …; assay: GST/ICAT pull-down of ^35S-labeled in vitro translated protein, autoradiography
Protocol: (§1) The GST/ICAT-expressing E. coli as well as control GST-expressing E. coli prepared in Example 3 were cultured to obtain the respective bacterial lysates. Glutathione-Sepharose 4B (Amersham-Pharmacia Biotech) was added to these bacterial lysates, and […] or GST was adsorbed on it to isolate it. The GST/ICAT- or GST-adsorbed glutathione-Sepharose 4B was reacted to the above-mentioned ^35S-labeled β-catenin in buffer A containing 0.1% Triton X-100 at 4° C. for 2 hours. After the glutathione-Sepharose 4B was washed well with buffer A and then SDS-PAGE sample buffer was added thereto to elute the bound protein to the sample buffer. The eluate was used as a sample in SDS-PAGE in which the gel concentration was 15% and then the gel was visualized by autoradiography. […] Accordingly, it has been verified that GST/ICAT directly binds to β-catenin in vitro and that the site responsible for the binding to β-catenin is located within the ICAT moiety of GST/ICAT.
(§2) The region of β-catenin responsible for the binding with ICAT was determined as follows. DNA fragments encoding the region of armadillo domain of mouse β-catenin (residues 141 to 664 in the amino acid sequence), N-terminal portion (residues 1 to 140 in the amino acid sequence), and C-terminal portion (residues 665 to 782 in the amino acid sequence) were amplified by PCR. […]

[4] = target: T3, C-terminal portion of mouse β-catenin …; assay: as above
Protocol: as §1, §2

mouse β-catenin [5] = target: T1, mouse β-catenin; assay: GST fusion pull-down in vitro, as in Example 8
Protocol: as §1, with “Analysis of Binding Between ICAT and β-catenin (1) Detection of the Direct Binding In Vitro The direct binding of ICAT to β-catenin was verified as follows. ^35S-labeled β-catenin was translated and synthesized from mouse β-catenin mRNA in vitro by using ^35S-labeled methionine TNT-reticulocyte lysate system (Promega). The GST/ICAT-expressing” for “The GST/ICAT-expressing”, “of GST/ICAT. […]” for “of GST/ICAT.”

Binder	binding result [1]	further results
MNREGAPGKSPEEMYIQQKVRVLLMLRKMGSNLTASEEEFL (other, not shown: large carriers, Mouse ICAT deletion mutant used as a two-hybrid prey; also called (b) ICAT(1-41)) [ICAT(1-41), GAL4 AD fusion]	no binding	
RVLLMLRKMGSNLTASEEEFLRTYAGVVSSQLSQLPQHSID (other, not shown: large carriers, Mouse ICAT deletion mutant used as a two-hybrid prey; also called (g) ICAT(21-61)) [ICAT (21-61), GAL4 AD fusion]	no binding	
mouse ICAT (inhibitor of β-catenin and TCF) (other, Untagged full-length mouse ICAT (81 amino acids); It was tested expressed from pMKITneo in COS-7 and other animal cells, translated in vitro in reticulocyte lysate, and as the endogenous protein of mouse brain; also called 9-kDa protein) MNREGAPGKSPEEMYIQQKVRVLLMLRKMGSNLTASEEEFLRTYAGVVSSQLSQLPQHSIDQGAEDVVMAFSRSETEDRRQ		binding result (mouse β-catenin [2]): binds
GST/ICAT (fusion protein between GST and ICAT) (other, Mouse ICAT cDNA was subcloned between EcoRI/SalI of pGEX5X-1, so ICAT sits on the C-terminal side of GST; Expressed in E. coli; not shown: glutathione S-transferase (GST) as encoded by vector pGEX5X-1) MNREGAPGKSPEEMYIQQKVRVLLMLRKMGSNLTASEEEFLRTYAGVVSSQLSQLPQHSIDQGAEDVVMAFSRSETEDRRQ		binding result [3]: no binding; binding result [4]: no binding
ICAT(E37-39A) expressed as a GST fusion protein (other, Expressed in E. coli; not shown: glutathione S-transferase (GST); made in the same manner as GST/ICAT) MNREGAPGKSPEEMYIQQKVRVLLMLRKMGSNLTASAAAFLRTYAGVVSSQLSQLPQHSIDQGAEDVVMAFSRSETEDRRQ		binding result (mouse β-catenin [5]): no binding

Further lines, with some results ahead:

binding result [1]	Binder	further results
no binding	RTYAGVVSSQLSQLPQHSIDQGAEDVVMAFSRSETEDRRQ (other, not shown: large carriers, Mouse ICAT deletion mutant used as a two-hybrid prey; also called (e) ICAT(42-81)) [ICAT (42-81), GAL4 AD fusion]	
no binding	ICAT(E37-39A), GAL4 AD fusion (other, not shown: large carriers, The glutamic acid residues 37, 38 and 39 are converted to alanine; Used as a two-hybrid prey; also called (j) ICAT(E37-39A)) MNREGAPGKSPEEMYIQQKVRVLLMLRKMGSNLTASAAAFLRTYAGVVSSQLSQLPQHSIDQGAEDVVMAFSRSETEDRRQ	
no binding	ICAT(21-81), GAL4 AD fusion (other, not shown: large carriers, Mouse ICAT deletion mutant used as a two-hybrid prey; also called (d) ICAT(21-81)) RVLLMLRKMGSNLTASEEEFLRTYAGVVSSQLSQLPQHSIDQGAEDVVMAFSRSETEDRRQ	
